In experiment [1] the target is T1, human ROR1 on the surface of tumor cells (human, UniProt Q01973 30-937).
T1 construct: whole, on cells; also called ROR1 on the cell surface; tumor cell ROR1
Description: FACS, MDA-MB-231 cells.

For experiment [2], the target named is T2, Extracellular domain of human ROR1 protein (ROR1-ECD) (human, UniProt Q01973 30-403).
T2 construct: Expressed in HEK293T cells; also called human ROR1-ECD; purified human ROR1 protein extracellular segment
As to the kind of experiment: ELISA, plate-coated ROR1-ECD. In general terms: An ELISA detects its analyte on a solid surface through an enzyme-linked reagent.

T2 sequence (Q01973 other isoform, or with tags, fused parts or gaps): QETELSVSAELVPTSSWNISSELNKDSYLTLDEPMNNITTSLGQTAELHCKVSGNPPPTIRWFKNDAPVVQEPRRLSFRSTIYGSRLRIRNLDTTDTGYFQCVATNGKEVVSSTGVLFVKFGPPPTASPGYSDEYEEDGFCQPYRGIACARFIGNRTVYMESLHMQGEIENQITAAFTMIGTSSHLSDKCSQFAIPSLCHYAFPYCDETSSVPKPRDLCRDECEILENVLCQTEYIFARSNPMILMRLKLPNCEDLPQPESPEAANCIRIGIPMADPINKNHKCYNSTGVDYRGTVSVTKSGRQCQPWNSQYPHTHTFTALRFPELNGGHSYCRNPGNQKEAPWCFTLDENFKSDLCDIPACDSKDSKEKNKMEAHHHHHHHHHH
T1 sequence (Q01973 30-937): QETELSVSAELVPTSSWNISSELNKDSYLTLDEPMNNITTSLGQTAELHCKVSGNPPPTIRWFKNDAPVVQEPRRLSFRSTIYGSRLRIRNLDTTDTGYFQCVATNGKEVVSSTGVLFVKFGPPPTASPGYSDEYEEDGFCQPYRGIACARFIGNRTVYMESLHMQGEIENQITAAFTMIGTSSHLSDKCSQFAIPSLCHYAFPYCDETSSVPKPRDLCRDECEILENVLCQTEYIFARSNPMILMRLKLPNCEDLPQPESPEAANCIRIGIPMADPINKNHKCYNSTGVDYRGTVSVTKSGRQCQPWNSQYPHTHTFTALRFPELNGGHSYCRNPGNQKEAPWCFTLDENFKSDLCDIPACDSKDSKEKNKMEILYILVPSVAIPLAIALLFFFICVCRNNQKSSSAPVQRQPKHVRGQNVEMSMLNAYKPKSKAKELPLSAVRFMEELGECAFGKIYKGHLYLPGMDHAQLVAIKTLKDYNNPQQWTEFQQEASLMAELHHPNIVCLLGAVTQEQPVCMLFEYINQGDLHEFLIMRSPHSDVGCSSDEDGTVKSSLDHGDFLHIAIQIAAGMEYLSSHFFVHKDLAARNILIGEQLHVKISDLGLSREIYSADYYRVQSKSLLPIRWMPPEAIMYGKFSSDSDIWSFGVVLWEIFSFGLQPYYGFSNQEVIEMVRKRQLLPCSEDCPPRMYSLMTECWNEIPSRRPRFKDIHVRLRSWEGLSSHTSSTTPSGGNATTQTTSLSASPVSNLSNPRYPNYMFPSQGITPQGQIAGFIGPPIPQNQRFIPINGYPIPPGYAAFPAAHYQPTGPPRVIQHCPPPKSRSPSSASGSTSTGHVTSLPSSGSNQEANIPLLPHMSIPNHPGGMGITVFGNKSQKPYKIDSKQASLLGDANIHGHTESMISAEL

B1: Hu001-05 (antibody, V domains shown)
VH: QVQLVQSGAEVKKPGASVKVSCKASGYTFTDYNLHWVRQAPGQGLEWMGYINPNHDATSYNQKFQGKVTMTVDTSTSTVYMELSSLRSEDTAVYYCARRVRTGTGLDDWGQGTTVTVSS
VL: DVVMTQSPLSLPVTLGQPASISCRSSHNIVHTNANTYLEWYQQRPGQSPRLLIYKVSNRFSGVPDRFSGSGSGTDFTLKISRVEAEDVGVYYCFQGSRFPYTFGGGTKVEIK
notes: Humanized; also called Hu001-5
As to B1, the binding result in experiment [1] and in experiment [2] was “binds” throughout.

B2: Hu001-02 (antibody, V domains shown)
VH: QVQLVQSGAEVKKPGASVKVSCKASGYTFTDYNLHWVRQAPGQGLEWMGYINPNHDATSYNQKFQGRVTMTRDTSTSTVYMELSSLRSEDTAVYYCARRVRTGTGLDDWGQGTTVTVSS
VL: DVVMTQSPLSLPVTLGQPASISCRSSHNIVHTNANTYLEWYQQRPGQSPRLLIYKVSNRFSGVPDRFSGSGSGTDFTLKISRVEAEDVGVYYCFQGSRFPYTFGGGTKVEIK
notes: Humanized; also called Hu001-2
In the case of B2, the binding result in experiment [1] and in experiment [2] was “binds” throughout.

B3: Hu001-15 (antibody, V domains shown)
VH: QVQLVQSGAEVKKPGASVKVSCKASGYTFTDYNLHWVKQAPGQGLEWIGYINPNHDATSYNQKFQGKATLTVDTSTSTAYMELSSLTSEDTAVYYCARRVRTGTGLDDWGQGTTVTVSS
VL: DVVMTQSPLSLPVTLGQPASISCRSSHNIVHTNANTYLEWYQQRPGQSPKLLIYKVSNRFSGVPDRFSGSGSGTDFTLKISRVEAEDVGVYYCFQGSRFPYTFGGGTKVEIK
notes: Humanized
Take B3: the binding result in experiment [1] and in experiment [2] was “binds” each time.

B4: Hu001-03 (antibody, V domains shown)
VH: QVQLVQSGAEVKKPGASVKVSCKASGYTFTDYNLHWVRQAPGQGLEWMGYINPNHDATSYNQKFQGRVTMTRDTSTSTVYMELSSLRSEDTAVYYCARRVRTGTGLDDWGQGTTVTVSS
VL: DVVMTQSPLSLPVTLGQPASISCRSSHNIVHTNANTYLEWYQQRPGQSPKLLIYKVSNRFSGVPDRFSGSGSGTDFTLKISRVEAEDVGVYYCFQGSRFPYTFGGGTKVEIK
notes: Humanized; also called Hu001-3
As for B4, the binding result in experiment [1] and in experiment [2] was “binds” in each case.

B5: Hu001-3-MMAE (antibody, human IgG1, DAR about 4.15, V domains shown)
VH: QVQLVQSGAEVKKPGASVKVSCKASGYTFTDYNLHWVRQAPGQGLEWMGYINPNHDATSYNQKFQGRVTMTRDTSTSTVYMELSSLRSEDTAVYYCARRVRTGTGLDDWGQGTTVTVSS
VL: DVVMTQSPLSLPVTLGQPASISCRSSHNIVHTNANTYLEWYQQRPGQSPKLLIYKVSNRFSGVPDRFSGSGSGTDFTLKISRVEAEDVGVYYCFQGSRFPYTFGGGTKVEIK
modifications: vcMMAE on cysteines after TCEP reduction, positions not given
notes: Antibody-drug conjugate of Hu001-3 (human IgG1, Kappa) with vcMMAE
B5: the binding result in experiment [1] and in experiment [2] was “binds” each time.

B6: Hu001-08 (antibody, V domains shown)
VH: QVQLVQSGAEVKKPGASVKVSCKASGYTFTDYNLHWVKQAPGQGLEWIGYINPNHDATSYNQKFQGKVTMTVDTSTSTVYMELSSLRSEDTAVYYCARRVRTGTGLDDWGQGTTVTVSS
VL: DVVMTQSPLSLPVTLGQPASISCRSSHNIVHTNANTYLEWYQQRPGQSPRLLIYKVSNRFSGVPDRFSGSGSGTDFTLKISRVEAEDVGVYYCFQGSRFPYTFGGGTKVEIK
notes: Humanized; also called Hu001-8
Consider B6, for which the binding result in experiment [1] and in experiment [2] was “binds” throughout.

B7: Hu001-12 (antibody, V domains shown)
VH: QVQLVQSGAEVKKPGASVKVSCKASGYTFTDYNLHWVKQAPGQGLEWIGYINPNHDATSYNQKFQGKATLTVDTSTSTVYMELSSLRSEDTAVYYCARRVRTGTGLDDWGQGTTVTVSS
VL: DVVMTQSPLSLPVTLGQPASISCRSSHNIVHTNANTYLEWYQQRPGQSPKLLIYKVSNRFSGVPDRFSGSGSGTDFTLKISRVEAEDVGVYYCFQGSRFPYTFGGGTKVEIK
notes: Humanized
For the molecule B7, the binding result in experiment [1] and in experiment [2] was “binds” throughout.

B8: Hu001-11 (antibody, V domains shown)
VH: QVQLVQSGAEVKKPGASVKVSCKASGYTFTDYNLHWVKQAPGQGLEWIGYINPNHDATSYNQKFQGKATLTVDTSTSTVYMELSSLRSEDTAVYYCARRVRTGTGLDDWGQGTTVTVSS
VL: DVVMTQSPLSLPVTLGQPASISCRSSHNIVHTNANTYLEWYQQRPGQSPRLLIYKVSNRFSGVPDRFSGSGSGTDFTLKISRVEAEDVGVYYCFQGSRFPYTFGGGTKVEIK
notes: Humanized
B8: the binding result in experiment [1] and in experiment [2] was “binds” in each case.

B9: Hu001-06 (antibody, V domains shown)
VH: QVQLVQSGAEVKKPGASVKVSCKASGYTFTDYNLHWVRQAPGQGLEWMGYINPNHDATSYNQKFQGKVTMTVDTSTSTVYMELSSLRSEDTAVYYCARRVRTGTGLDDWGQGTTVTVSS
VL: DVVMTQSPLSLPVTLGQPASISCRSSHNIVHTNANTYLEWYQQRPGQSPKLLIYKVSNRFSGVPDRFSGSGSGTDFTLKISRVEAEDVGVYYCFQGSRFPYTFGGGTKVEIK
notes: Humanized; also called Hu001-6
As to B9, the binding result in experiment [1] and in experiment [2] was “binds” each time.

B10: Hu001-2-MMAE (antibody, human IgG1, DAR about 4.15, V domains shown)
VH: QVQLVQSGAEVKKPGASVKVSCKASGYTFTDYNLHWVRQAPGQGLEWMGYINPNHDATSYNQKFQGRVTMTRDTSTSTVYMELSSLRSEDTAVYYCARRVRTGTGLDDWGQGTTVTVSS
VL: DVVMTQSPLSLPVTLGQPASISCRSSHNIVHTNANTYLEWYQQRPGQSPRLLIYKVSNRFSGVPDRFSGSGSGTDFTLKISRVEAEDVGVYYCFQGSRFPYTFGGGTKVEIK
modifications: vcMMAE on cysteines after TCEP reduction, positions not given
notes: Antibody-drug conjugate of Hu001-2 (human IgG1, Kappa) with vcMMAE
For B10, the binding result in experiment [1] and in experiment [2] was “binds” each time.

B11: Hu001-14 (antibody, V domains shown)
VH: QVQLVQSGAEVKKPGASVKVSCKASGYTFTDYNLHWVKQAPGQGLEWIGYINPNHDATSYNQKFQGKATLTVDTSTSTAYMELSSLTSEDTAVYYCARRVRTGTGLDDWGQGTTVTVSS
VL: DVVMTQSPLSLPVTLGQPASISCRSSHNIVHTNANTYLEWYQQRPGQSPRLLIYKVSNRFSGVPDRFSGSGSGTDFTLKISRVEAEDVGVYYCFQGSRFPYTFGGGTKVEIK
notes: Humanized
For B11, the binding result in experiment [1] and in experiment [2] was “binds” each time.

B12: Hu005-46 (antibody, V domains shown)
VH: EVQLVESGGGLVKPGGSLRLSCAASGFTFNSYAMSWVRQTPGKRLEWVATISDAGSYTYYPDNEKGRFTISRDNAKNSLYLQMNSLRAEDTAIYYCVRGGYYYNLYAMDYWGQGTLVTVSS
VL: DIVLTQSPDSLAVSLGERATINCKASQSVSFPGTSLMHWYQQKPGQQPKLLIYRASNLEAGVPDRFSGSGSRTDFTLTISSLQAEDVAVYYCQQSREYPWTFGGGTKVEIK
notes: Humanized
As to B12, the binding result in experiment [1] and in experiment [2] was “binds” in each case.

B13: Hu005-42 (antibody, V domains shown)
VH: EVQLVESGGGLVKPGGSLRLSCAASGFTFNSYAMSWVRQTPEKRLEWVATISDAGSYTYYPDNEKGRFTISRDNAKNSLYLQMNSLRAEDTAIYYCVRGGYYYNLYAMDYWGQGTLVTVSS
VL: DIVLTQSPDSLAVSLGERATINCKASQSVSFPGTSLMHWYQQKPGQQPKLLIYRASNLEAGVPDRFSGSGSRTDFTLTISSLQAEDVAVYYCQQSREYPWTFGGGTKVEIK
notes: Humanized
On to B13, for which the binding result in experiment [1] and in experiment [2] was “binds” each time.

B14: Hu005-41 (antibody, V domains shown)
VH: EVQLVESGGGLVKPGGSLRLSCAASGFTFNSYAMSWVRQTPGKRLEWVATISDAGSYTYYPDNEKGRFTISRDNAKNNLYLQMNSLRAEDTAIYYCVRGGYYYNLYAMDYWGQGTLVTVSS
VL: DIVLTQSPDSLAVSLGERATINCKASQSVSFPGTSLMHWYQQKPGQQPKLLIYRASNLEAGVPDRFSGSGSRTDFTLTISSLQAEDVAVYYCQQSREYPWTFGGGTKVEIK
notes: Humanized
In the case of B14, the binding result in experiment [1] and in experiment [2] was “binds” throughout.

B15: Hu005-35 (antibody, V domains shown)
VH: EVQLVESGGGLVKPGGSLRLSCAASGFTFNSYAMSWVRQTPEKRLEWVATISDAGSYTYYPDNEKGRFTISRDNAKNNLYLQMNSLRAEDTAIYYCVRGGYYYNLYAMDYWGQGTLVTVSS
VL: DIVLTQSPDSLAVSLGERATINCKASQSVSFPGTSLMHWYQQKPGQQPKLLIYRASNLEAGVPDRFSGSGSRTDFTLTISSLQAEDVAVYYCQQSREYPWTFGGGTKVEIK
notes: Humanized
For B15, the binding result in experiment [1] and in experiment [2] was “binds” throughout.

B16: Hu005-40 (antibody, V domains shown)
VH: EVQLVESGGGLVKPGGSLRLSCAASGFTFNSYAMSWVRQTPEKGLEWVATISDAGSYTYYPDNEKGRFTISRDNAKNNLYLQMNSLRAEDTAIYYCVRGGYYYNLYAMDYWGQGTLVTVSS
VL: DIVLTQSPDSLAVSLGERATINCKASQSVSFPGTSLMHWYQQKPGQQPKLLIYRASNLEAGVPDRFSGSGSRTDFTLTISSLQAEDVAVYYCQQSREYPWTFGGGTKVEIK
notes: Humanized
Regarding B16, the binding result in experiment [1] and in experiment [2] was “binds” in each case.

B17: Hu005-43 (antibody, V domains shown)
VH: EVQLVESGGGLVKPGGSLRLSCAASGFTFNSYAMSWVRQTPGKGLEWVATISDAGSYTYYPDNEKGRFTISRDNAKNNLYLQMNSLRAEDTAIYYCVRGGYYYNLYAMDYWGQGTLVTVSS
VL: DIVLTQSPDSLAVSLGERATINCKASQSVSFPGTSLMHWYQQKPGQQPKLLIYRASNLEAGVPDRFSGSGSRTDFTLTISSLQAEDVAVYYCQQSREYPWTFGGGTKVEIK
notes: Humanized
As for B17, the binding result in experiment [1] and in experiment [2] was “binds” in each case.

B18: Hu005-44 (antibody, V domains shown)
VH: EVQLVESGGGLVKPGGSLRLSCAASGFTFNSYAMSWVRQTPGKGLEWVATISDAGSYTYYPDNEKGRFTISRDNAKNSLYLQMNSLRAEDTAIYYCVRGGYYYNLYAMDYWGQGTLVTVSS
VL: DIVLTQSPDSLAVSLGERATINCKASQSVSFPGTSLMHWYQQKPGQQPKLLIYRASNLEAGVPDRFSGSGSRTDFTLTISSLQAEDVAVYYCQQSREYPWTFGGGTKVEIK
notes: Humanized
Regarding B18, the binding result in experiment [1] and in experiment [2] was “binds” each time.

The values above are taken from patent EP4585616A1, “ANTIBODY CAPABLE OF SPECIFICALLY BINDING TO ROR1, […] THEREOF, AND PREPARATION METHOD THEREFOR AND USE THEREOF” (Hefei Institutes of Physical Science, Chinese Academy of …, priority 2022, dated 2024).
